Reference: publication PMC5367257 (RNA Biology, 2017)
One block for each binder: values may come before it.

Experiments:
[1] = biological target: PABP 2-3 mt (human, UniProt P11940 1-175+=[…]+190-636, internal_change); experiment: EMSA
[2] = biological target: WT PABP (human, UniProt P11940 1-636); experiment: EMSA
[3] = biological target: His-PABP-Flag (wild-type full-length human poly(A)-binding protein) (human, UniProt P11940 1-636); experiment: pull-down

Binder: AAAAAAAAAAAAAAAAAAAAAAAAA (ssRNA) [poly(A)25 RNA]
- Kd [1]: ~6.9 nM
- Kd [2]: ~5.9 nM

- fold increase of binding with eIF4E against without eIF4E [3]: ~3 fold
B1: His-eIF4G-N (truncated human eIF4GI, amino acids 42–653, with the PABP- and eIF4E-binding sites) (domain or fragment)
chain: NTPSQPRQHFYPSRAQPPSSAASRVQSAAPARPGPAAHVYPAGSQVMMIPSQISYPASQGAYYIPGQGRSTYVVPTQQYPVQPGAPGFYPGASPTEFGTYAGAYYPAQGVQQFPTGVAPTPVLMNQPPQIAPKRERKTIRIRDPNQGGKDITEEIMSGARTASTPTPPQTGGGLEPQANGETPQVAVIVRPDDRSQGAIIADRPGLPGPEHSPSESQPSSPSPTPSPSPVLEPGSEPNLAVLSIPGDTMTTIQMSVEESTPISRETGEPYRLSPEPTPLAEPILEVEVTLSKPVPESEFSSSPLQAPTPLASHTVEIHEPNGMVPSEDLEPEVESSPELAPPPACPSESPVPIAPTAQPEELLNGAPSPPAVDLSPVSEPEEQAKEVTASMAPPTIPSATPATAPSATSPAQEEEMEEEEEEEEGEAGEAGEAESEKGGEELLPPESTPIPANLSQNLEAAAATQVAVSVPKRRRKIKELNKKEAVGDLLDAFKEANPAVPEVENQPPAGSNPGPESEGSGVPPRPEEADETWDSKEDKIHNAENIQPGEQKYEYKSDQWKPLNLEEKKRYDREFLLGFQFIFASMQKPEGLPHISDVVLDKANKTPLRPLD
